Experimental data taken from paper PMC11997214.

Experiment: Flag IP, Ub blots after NMS-873 or CB-5083
Settings: glycan lost; control: wild type

Row | Protein | other: total and K48-linked ubiquitination
1 | B7H3 (4IgB7H3, CD276): N91/104/309/322Q (protein) parent chain: MLRRRGSPGMGVHVGAALGALWFCLTGALEVQVPEDPVVALVGTDATLCCSFSPEPGFSLAQLNLIWQLTDTKQLVHSFAEGQDQGSAYANRTALFPDLLAQGNASLRLQRVRVADEGSFTCFVSIRDFGSAAVSLQVAAPYSKPSMTLEPNKDLRPGDTVTITCSSYQGYPEAEVFWQDGQGVPLTGNVTTSQMANEQGLFDVHSILRVVLGANGTYSCLVRNPVLQQDAHSSVTITPQRSPTGAVEVQVPEDPVVALVGTDATLRCSFSPEPGFSLAQLNLIWQLTDTKQLVHSFTEGRDQGSAYANRTALFPDLLAQGNASLRLQRVRVADEGSFTCFVSIRDFGSAAVSLQVAAPYSKPSMTLEPNKDLRPGDTVTITCSSYRGYPEAEVFWQDGQGVPLTGNVTTSQMANEQGLFDVHSVLRVVLGANGTYSCLVRNPVLQQDAHGSVTITGQPMTFPPEALWVTVGLSVCLIALLVALAFVCWRKIKQSCEEENAGAEDQDGEGEGSKTALQPLKHSDSKEDDGQEIA | increases
2 | B7H3 (4IgB7H3, CD276): 8NQ (protein) parent chain: MLRRRGSPGMGVHVGAALGALWFCLTGALEVQVPEDPVVALVGTDATLCCSFSPEPGFSLAQLNLIWQLTDTKQLVHSFAEGQDQGSAYANRTALFPDLLAQGNASLRLQRVRVADEGSFTCFVSIRDFGSAAVSLQVAAPYSKPSMTLEPNKDLRPGDTVTITCSSYQGYPEAEVFWQDGQGVPLTGNVTTSQMANEQGLFDVHSILRVVLGANGTYSCLVRNPVLQQDAHSSVTITPQRSPTGAVEVQVPEDPVVALVGTDATLRCSFSPEPGFSLAQLNLIWQLTDTKQLVHSFTEGRDQGSAYANRTALFPDLLAQGNASLRLQRVRVADEGSFTCFVSIRDFGSAAVSLQVAAPYSKPSMTLEPNKDLRPGDTVTITCSSYRGYPEAEVFWQDGQGVPLTGNVTTSQMANEQGLFDVHSVLRVVLGANGTYSCLVRNPVLQQDAHGSVTITGQPMTFPPEALWVTVGLSVCLIALLVALAFVCWRKIKQSCEEENAGAEDQDGEGEGSKTALQPLKHSDSKEDDGQEIA | increases
